The target of experiment [1] is T1, VEGF (VEGF 1-165 aa, R&D Systems 293-VE-010) (UniProt P15692 27-191).
T1 construct: bought reagent; also called vascular endothelial growth factor
Nature of the experiment: Direct bind ELISA, VEGF coated on plate; VEGF domain C-term., HC short/LC long. (ELISA stands for enzyme-linked immunosorbent assay.)

Experiment [2] has as its target T2, IGF1 (UniProt P05019 49-118, limits assumed). Nature of the experiment: cell-based or functional assay.
Experiment [3] addresses T3, IGF2 (UniProt P01344 25-91, limits assumed). Nature of the experiment: cell-based or functional assay.
For experiment [4], the target named is T2, IGF1. Nature of the experiment: cell-based or functional assay. The source holds these as a separate data set.
For experiment [5], the target named is T3, IGF2. Nature of the experiment: cell-based or functional assay. The source holds these as a separate data set.
Experiment [6] addresses T4, ErbB3 (ErbB3 ECD/FC Chimera-His tag, R&D 348-RB-050) (UniProt P21860 20-643, limits assumed).
T4 construct: extracellular domain; Bought antigen coated on the ELISA plate
Nature of the experiment: direct bind ELISA, coated antigen; parent reference antibody.

Experiment [7] addresses T1, VEGF (VEGF 1-165 aa, R&D Systems …). The experiment is described as follows: Direct bind ELISA, VEGF coated on plate; VEGF domain N-term., HC short/LC long.
The target in experiment [8] is recombinant human VEGF165 (human, UniProt P15692-4 27-191). Nature of the experiment: cell-based or functional assay.

“And” between values parts separate entries of the source, which are not always exact repeats. Identical values can stand only once. A value given as a limit tells only on which side of the number the result lay.

From patent publication US20100260668A1 (published 2010) come the findings set out here.

For orientation: EC50 means the midpoint of the concentration-response curve.

T1 sequence (P15692 other isoform, or with tags, fused parts or gaps limits assumed): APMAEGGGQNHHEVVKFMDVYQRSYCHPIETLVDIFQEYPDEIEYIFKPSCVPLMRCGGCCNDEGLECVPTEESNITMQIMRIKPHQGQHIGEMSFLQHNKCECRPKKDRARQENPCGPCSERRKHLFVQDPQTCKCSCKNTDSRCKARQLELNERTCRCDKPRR
Sequence of recombinant human VEGF165 (P15692 other isoform, or with tags, fused parts or gaps limits assumed): as above

B1: DVD507 (bispecific antibody, human IgG1, kappa, L234A L235A)
heavy: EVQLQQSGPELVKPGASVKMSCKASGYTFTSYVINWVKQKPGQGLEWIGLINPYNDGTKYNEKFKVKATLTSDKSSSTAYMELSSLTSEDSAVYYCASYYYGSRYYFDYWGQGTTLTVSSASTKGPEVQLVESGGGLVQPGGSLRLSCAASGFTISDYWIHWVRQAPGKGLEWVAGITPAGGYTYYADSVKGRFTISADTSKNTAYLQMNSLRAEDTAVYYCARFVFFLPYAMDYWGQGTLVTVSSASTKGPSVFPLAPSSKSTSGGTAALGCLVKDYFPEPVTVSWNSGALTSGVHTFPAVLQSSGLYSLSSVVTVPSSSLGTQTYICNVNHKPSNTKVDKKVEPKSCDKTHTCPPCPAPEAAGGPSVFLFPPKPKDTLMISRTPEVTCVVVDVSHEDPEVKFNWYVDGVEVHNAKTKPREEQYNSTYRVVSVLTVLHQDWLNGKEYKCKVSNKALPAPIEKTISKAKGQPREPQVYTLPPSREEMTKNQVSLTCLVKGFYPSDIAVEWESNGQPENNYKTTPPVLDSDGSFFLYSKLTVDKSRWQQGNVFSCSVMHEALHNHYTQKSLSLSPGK
light: DIQMTQSSSYLSVSLGGRVTITCKASDHINNWLAWYQQKPGNAPRLLISGATSLETGVPSRFSGSGSGKDYTLSITSLQTEDVATYYCQQYWSIPLTFGAGTKLELKRTVAAPSVFIFPPDIQMTQSPSSLSASVGDRVTITCRASQDVSTAVAWYQQKPGKAPKLLIYSASFLYSGVPSRFSGSGSGTDFTLTISSLQPEDFATYYCQQSYTTPPTFGQGTKVEIKRTVAAPSVFIFPPSDEQLKSGTASVVCLLNNFYPREAKVQWKVDNALQSGNSQESVTEQDSKDSTYSLSSTLTLSKADYEKHKVYACEVTHQGLSSPVTKSFNRGEC
notes: DVD-Ig; N-term; AB072 (DLL4), C-term; AB070 (VEGF); HC linker short, LC linker long; also called DVD-Ig DVD507; DVD507H/DVD507L
In turn, B1 gave an EC50 in experiment [1] of 34.9 nM.

B2: DVD531 (bispecific antibody, human IgG1, kappa, lambda)
heavy: not shown
light: QAVVTQESALTTSPGETVTLTCRSSTGAVTTSNYANWVQEKPDHLFTGLIGGTNNRAPGVPARFSGSLIGDKAALTITGAQTEDEAIYFCALWYSNHWVFGGGTKLTVLGQPKAAPSVTLFPPDIQMTQSPSSLSASVGDRVTITCRASQDVSTAVAWYQQKPGKAPKLLIYSASFLYSGVPSRFSGSGSGTDFTLTISSLQPEDFATYYCQQSYTTPPTFGQGTKVEIKRTVAAPSVFIFPPSDEQLKSGTASVVCLLNNFYPREAKVQWKVDNALQSGNSQESVTEQDSKDSTYSLSSTLTLSKADYEKHKVYACEVTHQGLSSPVTKSFNRGEC
notes: DVD-Ig; N-term; AB073 (DLL4), C-term; AB070 (VEGF); HC linker short, LC linker long; also called DVD-Ig DVD531; DVD531H/DVD531L
B2 returned an EC50 in experiment [1] of 60.4 nM.

B3: AB010 (antibody, human IgG1, lambda, V domains shown)
VH: QVQLVQSGAEVKKPGASVKVSCKASGYTFTSYDINWVRQATGQGLEWMGWMNPNSGNTGYAQKFQGRVTMTRNTSISTAYMELSSLRSEDTAVYYCARDPYYYYYGMDVWGQGTTVTVSS
VL: QSVLTQPPSVSAAPGQKVTISCSGSSSNIENNHVSWYQQLPGTAPKLLIYDNNKRPSGIPDRFSGSKSGTSATLGITGLQTGDEADYYCETWDTSLSAGRVFGGGTKLTVLG
Take B3: the “H929, IGF1R line proliferation inhibition IC50” value with IGF1 [2] and with IGF2 [3] was 1.6 nM throughout. In addition, the “H929, IGF1R line proliferation inhibition, max” value with IGF1 [2] and with IGF2 [3] was 70 % max in each case. The “A431, EGFR line proliferation inhibition IC50” value in the experiment with IGF1 [4] and with IGF2 [5] was above 67 nM in each case. For the same molecule, the “A431, EGFR line proliferation inhibition, max” value with IGF1 [4] and in the experiment with IGF2 [5] was 10 % max in each case.

B4: AB063 (antibody, human IgG1, kappa, V domains shown)
VH: EVQLVESGGGLVQPGGSLRLSCAASGFTFSIYSMNWVRQAPGKGLEWVSYISSSSSTIYYADSVKGRFTISRDNAKNSLYLQMNSLRDEDTAVYYCARDRGDFDAFDIWGQGTMVTVSS
VL: DIQMTQSPSSLSASVGDRVTITCQASQDITNYLNWYQQKPGKAPKLLIYDASNLETGVPSRFSGSGSGTDFTFTISSLQPEDIATYNCQQCENFPITFGQGTRLEIKR
notes: also called AB063VH
For B4, in experiment [6], the EC50 was 0.87 nM and 0.92 nM and 1.1 nM.

B5: DVD508 (bispecific antibody, human IgG1, kappa)
heavy: not shown
light: DIQMTQSPSSLSASVGDRVTITCRASQDVSTAVAWYQQKPGKAPKLLIYSASFLYSGVPSRFSGSGSGTDFTLTISSLQPEDFATYYCQQSYTTPPTFGQGTKVEIKRTVAAPSVFIFPPDIQMTQSSSYLSVSLGGRVTITCKASDHINNWLAWYQQKPGNAPRLLISGATSLETGVPSRFSGSGSGKDYTLSITSLQTEDVATYYCQQYWSIPLTFGAGTKLELKRTVAAPSVFIFPPSDEQLKSGTASVVCLLNNFYPREAKVQWKVDNALQSGNSQESVTEQDSKDSTYSLSSTLTLSKADYEKHKVYACEVTHQGLSSPVTKSFNRGEC
notes: DVD-Ig; N-term; AB070 (VEGF), C-term; AB072 (DLL4); HC linker short, LC linker long; also called DVD-Ig DVD508; DVD508H/DVD508L
In turn, B5 gave an EC50 in experiment [7] of 7.88 nM.

B6: AB062 (antibody, human IgG1, kappa, V domains shown)
VH: QVQLQQWGAGLLKPSETLSLTCAVYGGSFSGYYWSWIRQPPGKGLEWIGEINHSGSTNYNPSLKSRVTISVETSKNQFSLKLSSVTAADTAVYYCARDKWTWYFDLWGRGTLVTVSS
VL: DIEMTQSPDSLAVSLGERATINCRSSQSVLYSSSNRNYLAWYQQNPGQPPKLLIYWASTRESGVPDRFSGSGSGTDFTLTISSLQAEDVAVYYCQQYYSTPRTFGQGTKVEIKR
notes: also called AB062VH
Turning to B6, in experiment [6], the EC50 was 0.75 nM and 0.97 nM and 1.6 nM.

B7: DVD532 (bispecific antibody, human IgG1, kappa, lambda)
heavy: not shown
light: DIQMTQSPSSLSASVGDRVTITCRASQDVSTAVAWYQQKPGKAPKLLIYSASFLYSGVPSRFSGSGSGTDFTLTISSLQPEDFATYYCQQSYTTPPTFGQGTKVEIKRTVAAPSVFIFPPQAVVTQESALTTSPGETVTLTCRSSTGAVTTSNYANWVQEKPDHLFTGLIGGTNNRAPGVPARFSGSLIGDKAALTITGAQTEDEAIYFCALWYSNHWVFGGGTKLTVLGQPKAAPSVTLFPPSSEELQANKATLVCLISDFYPGAVTVAWKADSSPVKAGVETTTPSKQSNNKYAASSYLSLTPEQWKSHRSYSCQVTHEGSTVEKTVAPTECS
notes: DVD-Ig; N-term; AB070 (VEGF), C-term; AB073 (DLL4); HC linker short, LC linker long; also called DVD-Ig DVD532; DVD532H/DVD532L
The molecule B7 had an EC50 in experiment [7] of 28.9 nM.

B8: DVD041 (bispecific antibody, human IgG1, lambda)
heavy: not shown
light: DIQMTQSPSSLSASVGDRVTITCSASQDISNYLNWYQQKPGKAPKVLIYFTSSLHSGVPSRFSGSGSGTDFTLTISSLQPEDFATYYCQQYSTVPWTFGQGTKVEIKRTVAAPQSVLTQPPSVSAAPGQKVTISCSGSSSNIENNHVSWYQQLPGTAPKLLIYDNNKRPSGIPDRFSGSKSGTSATLGITGLQTGDEADYYCETWDTSLSAGRVFGGGTKLTVLGQPKAAPSVTLFPPSSEELQANKATLVCLISDFYPGAVTVAWKADSSPVKAGVETTTPSKQSNNKYAASSYLSLTPEQWKSHRSYSCQVTHEGSTVEKTVAPTECS
As for B8, the “A431, EGFR line proliferation inhibition IC50” value (in the experiment with IGF1 [4]; with IGF2 [5]; in experiment [8]) was above 50 nM throughout. Moreover, the “A431, EGFR line proliferation inhibition, max” value (with IGF1 [4]; with IGF2 [5]; in experiment [8]) was 0% in each case.

B9: DVD510 (bispecific antibody, human IgG1, kappa)
heavy: not shown
light: DIQMTQSPSSLSASVGDRVTITCRASQVIRRSLAWYQQKPGKAPKLLIYAASNLASGVPSRFSGSGSGTDFTLTISSLQPEDFATYYCQQSNTSPLTFGQGTKVEIKRTVAAPSVFIFPPDIQMTQSSSYLSVSLGGRVTITCKASDHINNWLAWYQQKPGNAPRLLISGATSLETGVPSRFSGSGSGKDYTLSITSLQTEDVATYYCQQYWSIPLTFGAGTKLELKRTVAAPSVFIFPPSDEQLKSGTASVVCLLNNFYPREAKVQWKVDNALQSGNSQESVTEQDSKDSTYSLSSTLTLSKADYEKHKVYACEVTHQGLSSPVTKSFNRGEC
notes: DVD-Ig; N-term; AB071 (VEGF), C-term; AB072 (DLL4); HC linker short, LC linker long; also called DVD-Ig DVD510; DVD510H/DVD510L
Regarding B9, in experiment [7], it took 23.9 nM to reach a half-maximal effect (EC50).

B10: DVD509 (bispecific antibody, human IgG1, kappa)
heavy: not shown
light: DIQMTQSSSYLSVSLGGRVTITCKASDHINNWLAWYQQKPGNAPRLLISGATSLETGVPSRFSGSGSGKDYTLSITSLQTEDVATYYCQQYWSIPLTFGAGTKLELKRTVAAPSVFIFPPDIQMTQSPSSLSASVGDRVTITCRASQVIRRSLAWYQQKPGKAPKLLIYAASNLASGVPSRFSGSGSGTDFTLTISSLQPEDFATYYCQQSNTSPLTFGQGTKVEIKRTVAAPSVFIFPPSDEQLKSGTASVVCLLNNFYPREAKVQWKVDNALQSGNSQESVTEQDSKDSTYSLSSTLTLSKADYEKHKVYACEVTHQGLSSPVTKSFNRGEC
notes: DVD-Ig; N-term; AB072 (DLL4), C-term; AB071 (VEGF); HC linker short, LC linker long; also called DVD-Ig DVD509; DVD509H/DVD509L
The molecule B10 returned an EC50 in experiment [1] of 121 nM.

B11: AB067 (antibody, human IgG1, lambda, L234A L235A, V domains shown)
VH: EVQLLESGGGLVQPGGSLRLSCAASGFTFSHYVMAWVRQAPGKGLEWVSSISSSGGWTLYADSVKGRFTISRDNSKNTLYLQMNSLRAEDTAVYYCTRGLKMATIFDYWGQGTLVTVSS
VL: QSALTQPASVSGSPGQSITISCTGTSSDVGSYNVVSWYQQHPGKAPKLIIYEVSQRPSGVSNRFSGSKSGNTASLTISGLQTEDEADYYCCSYAGSSIFVIFGGGTKVTVLG
notes: also called AB067VH
Take B11: the EC50 in experiment [6] is 1.78 nM and 2.2 nM and 1.12 nM.
